Assay results reported in US20240376151A1 (FOG PHARMACEUTICALS, published 2024).
One block for each binder: values may come before it. Bridge positions count the residues as written; N and C are the ends.

What was measured:
[1] = biological target: T1, active CDK2 (with T160 phosphorylated) (Homo sapiens (Human), UniProt P24941 1-298); test: SPR, ligand CDK2 (pT160), additives 2 mM AMPPNP, 5mM MgCl2
[2] = biological target: T1, active CDK2 (with T160 phosphorylated); test: SPR, ligand CDK2 (pT160), no additive
[3] = biological target: T1, active CDK2 (with T160 phosphorylated); test: SPR, ligand CDK2 (pT160), additive 200 nM Dinaciclib
[4] = biological target: CDK2:Cyclin E1 (CCNE1) complex (UniProt P24864 81-363); test: SPR, ligand CDK2 (pT160) : CCNE1
[5] = biological target: T2, PPIA, full length (residues 1-165) (human, UniProt P62937 1-165); test: SPR, affinity fit
T2 construct: also called Cyclophilin A; peptidyl-prolyl cis-trans isomerase A
T2 sequence (P62937 whole entry, the tested form may be a part): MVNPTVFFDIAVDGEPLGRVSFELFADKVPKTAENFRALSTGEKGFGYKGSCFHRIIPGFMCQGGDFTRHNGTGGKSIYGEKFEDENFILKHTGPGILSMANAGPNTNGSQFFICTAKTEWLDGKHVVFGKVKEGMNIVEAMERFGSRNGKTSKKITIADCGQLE

[6] = biological target: T3, beta-catenin Armadillo domain, residues 134-665 (human, UniProt P35222 134-665, biotinylated through the N-terminal yBBr tag for SPR; tag cleaved off for crystallography); test: SPR, alanine-scanning table
T3 construct: also called β-catenin; CTNNB1
T3 sequence: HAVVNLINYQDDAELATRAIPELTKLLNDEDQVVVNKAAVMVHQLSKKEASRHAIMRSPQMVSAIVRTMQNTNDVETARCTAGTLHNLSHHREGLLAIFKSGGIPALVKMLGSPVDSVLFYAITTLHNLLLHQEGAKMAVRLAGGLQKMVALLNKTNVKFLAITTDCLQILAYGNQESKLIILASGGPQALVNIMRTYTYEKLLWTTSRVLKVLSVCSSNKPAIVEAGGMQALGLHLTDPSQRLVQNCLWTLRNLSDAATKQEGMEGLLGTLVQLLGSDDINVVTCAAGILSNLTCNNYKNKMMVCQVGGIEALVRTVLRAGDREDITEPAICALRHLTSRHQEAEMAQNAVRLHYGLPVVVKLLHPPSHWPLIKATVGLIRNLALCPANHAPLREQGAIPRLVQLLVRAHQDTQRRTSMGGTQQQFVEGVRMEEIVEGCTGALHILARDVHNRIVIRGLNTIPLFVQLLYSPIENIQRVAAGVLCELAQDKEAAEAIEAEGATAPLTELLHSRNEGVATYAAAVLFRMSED

[7] = biological target: T3, beta-catenin Armadillo domain, residues …; test: SPR, immobilized β-catenin, MDM2 flowed in the presence of 1 µM Helicon H332 (1.m114)
[8] = biological target: T3, beta-catenin Armadillo domain, residues …; test: SPR, immobilized β-catenin, MDM2 flowed in the presence of 1 µM Helicon H330 (1.m112)
[9] = biological target: T2, PPIA, full length (residues 1-165); test: assay not named on the sheet; printed beside the co-crystal structure

B1: FP19711 (peptide)
peptide: Ac-DPAWWVCAIAAIECSDV-NH2
modifications: bridge 7-14; not fully specified (bridges)
notes: Cluster C51
- Kd [1]: 0.9 µM
- Kd [2]: 1.7 µM
- Kd [3]: 2 µM
- Kd [4]: 1.7 µM

B2: FP29092 (peptide)
peptide: Ac-DPANQDCHVAAWHCWQR-NH2
modifications: bridge 7-14; not fully specified (bridges)
notes: Cluster C53
- Kd [5]: 3 µM

B3: FP49251 (peptide)
stapled peptide: Ac-DPATARCEWAALHCELV-NH2
modifications: bridge 7-14; not fully specified (bridges); printed as Ac-DPATARCEWAALHCELV-NH2
notes: also called H-to-A member of the alanine-scanning series of FP01567
- Kd [6]: 0.4 µM

B6: FP49253 (peptide)
stapled peptide: Ac-DPATHRCAWAALHCELV-NH2
modifications: bridge 7-14; not fully specified (bridges); printed as Ac-DPATHRCAWAALHCELV-NH2
notes: also called E-to-A member of the alanine-scanning series of FP01567
- Kd [6]: 2.7 µM

B7: FP49254 (peptide)
stapled peptide: Ac-DPATHRCEAAALHCELV-NH2
modifications: bridge 7-14; not fully specified (bridges); printed as Ac-DPATHRCEAAALHCELV-NH2
notes: also called W-to-A member of the alanine-scanning series of FP01567
- Kd [6]: > 20 µM

B8: FP49252 (peptide)
stapled peptide: Ac-DPATHACEWAALHCELV-NH2
modifications: bridge 7-14; not fully specified (bridges); printed as Ac-DPATHACEWAALHCELV-NH2
notes: also called R-to-A member of the alanine-scanning series of FP01567
- Kd [6]: 0.3 µM

B11: FP33215 (peptide)
peptide: Ac-WWVCAIAAIECSD-NH2
modifications: bridge 4-11; also: Cys staple linker not named
notes: also called truncated version of FP19711
- Kd [4]: 0.27 µM

B12: FP29103 (peptide)
peptide: Ac-PDCHIRAYVCH-NH2
modifications: bridge 3-10; not fully specified (bridges)
notes: Cluster C54
- Kd [5]: 10 µM

B14: FP29102 (peptide)
peptide: Ac-PECHIEAYWCI-NH2
modifications: bridge 3-10; not fully specified (bridges); printed as Ac-PECHIEA YWCI-NH2
notes: Cluster C54
- Kd [9]: 11 µM

The remaining lines, values ahead:

- Kd [6]: > 20 µM
B4: FP49258 (peptide)
stapled peptide: Ac-DPATHRCEWAALHCEAV-NH2
modifications: bridge 7-14; not fully specified (bridges); printed as Ac-DPATHRCEWAALHCEAV-NH2
notes: also called L-to-A (penultimate residue) member of the alanine-scanning series of FP01567

- Kd [6]: > 20 µM
B5: FP49259 (peptide)
stapled peptide: Ac-DPATHRCEWAALHCELA-NH2
modifications: bridge 7-14; not fully specified (bridges)
notes: also called V-to-A (last residue) member of the alanine-scanning series of FP01567

- Kd [6]: > 20 µM
B9: FP49255 (peptide)
stapled peptide: Ac-DPATHRCEWAAAHCELV-NH2
modifications: bridge 7-14; not fully specified (bridges); printed as Ac-DPATHRCEWAAAHCELV-NH2
notes: also called L-to-A member of the alanine-scanning series of FP01567

- Kd [6]: 1 µM
B10: FP49257 (peptide)
stapled peptide: Ac-DPATHRCEWAALHCALV-NH2
modifications: bridge 7-14; not fully specified (bridges); printed as Ac-DPATHRCEWAALHCALV-NH2
notes: also called E-to-A (after the second Cys) member of the alanine-scanning series of FP01567

- Kd [7]: 1.34 µM
- Kd [8]: 0.254 µM
B13: MDM2 p53-binding domain, residues 17-111, C17S (enzyme)
chain: SQIPASEQETLVRPKPLLLKLLKSVGAQKDTYTMKEVLFYLGQYIMTKRLYDEKQQHIVYCSNDLLGDLFGVPSFSVKEHRKIYTMIYRNLVVVN
notes: Form for crystallography and the FP assays
